The supplement of paper PMC10567573

B1: ZNF511 (parent)
chain: EPLPVERDPAAGAAPFRFVARPVR
B2: KRT71 (parent)
chain: FGSRSLYSLGGVRSLNVASGSGKS

Variants of: B1
Assay: protein stability index of a GFP-peptide fusion (GPS, HEK-293T) (PSI 1-6); higher = more stable
Details: c terminus: a fixed tail appended
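Further: lentivirally expressed fusions sorted by FACS into six bins by GFP to DsRed ratio, PSI derived from sequencing read proportions per bin multiplied by bin number.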

Variant | protein stability index
EPLPVERDPAAGAAPFRFVARPAR [V23A] | 2.58
EPLPVERDPAAGAAPFRFVARPCR [V23C] | 3.19
EPLPVERDPAAGAAPFRFVARPDR [V23D] | 2.4
EPLPVERDPAAGAAPFRFVARPER [V23E] | 2.4
EPLPVERDPAAGAAPFRFVARPFR [V23F] | 2.48
EPLPVERDPAAGAAPFRFVARPGR [V23G] | 2.25
EPLPVERDPAAGAAPFRFVARPHR [V23H] | 2.69
EPLPVERDPAAGAAPFRFVARPIR [V23I] | 3
EPLPVERDPAAGAAPFRFVARPKR [V23K] | 2.01
EPLPVERDPAAGAAPFRFVARPLR [V23L] | 2.73
EPLPVERDPAAGAAPFRFVARPMR [V23M] | 2.4
EPLPVERDPAAGAAPFRFVARPNR [V23N] | 2.13
EPLPVERDPAAGAAPFRFVARPPR [V23P] | 2.83
EPLPVERDPAAGAAPFRFVARPQR [V23Q] | 2.95
EPLPVERDPAAGAAPFRFVARPRR [V23R] | 2.8
EPLPVERDPAAGAAPFRFVARPSR [V23S] | 2.41
EPLPVERDPAAGAAPFRFVARPTR [V23T] | 2.17
EPLPVERDPAAGAAPFRFVARPWR [V23W] | 2.28
EPLPVERDPAAGAAPFRFVARPYR [V23Y] | 2.07

Variant | protein stability index
EPLPVERDPAAGAAPFRFVARPVA [R24A] | 2.2
EPLPVERDPAAGAAPFRFVARPVC [R24C] | 2.22
EPLPVERDPAAGAAPFRFVARPVD [R24D] | 2.17
EPLPVERDPAAGAAPFRFVARPVE [R24E] | 2.15
EPLPVERDPAAGAAPFRFVARPVF [R24F] | 2.04
EPLPVERDPAAGAAPFRFVARPVG [R24G] | 1.89
EPLPVERDPAAGAAPFRFVARPVH [R24H] | 2.02
EPLPVERDPAAGAAPFRFVARPVI [R24I] | 2.33
EPLPVERDPAAGAAPFRFVARPVK [R24K] | 2.04
EPLPVERDPAAGAAPFRFVARPVL [R24L] | 1.62
EPLPVERDPAAGAAPFRFVARPVM [R24M] | 2.37
EPLPVERDPAAGAAPFRFVARPVN [R24N] | 2.18
EPLPVERDPAAGAAPFRFVARPVP [R24P] | 2.75
EPLPVERDPAAGAAPFRFVARPVQ [R24Q] | 1.77
EPLPVERDPAAGAAPFRFVARPVS [R24S] | 1.81
EPLPVERDPAAGAAPFRFVARPVT [R24T] | 1.97
EPLPVERDPAAGAAPFRFVARPVV [R24V] | 1.7
EPLPVERDPAAGAAPFRFVARPVW [R24W] | 1.64
EPLPVERDPAAGAAPFRFVARPVY [R24Y] | 1.78

Variants of: B2
Assay: as above
Details: c terminus: a fixed tail appended

Variant | protein stability index
AGSRSLYSLGGVRSLNVASGSGKS [F1A] | 4.02
CGSRSLYSLGGVRSLNVASGSGKS [F1C] | 2.87
DGSRSLYSLGGVRSLNVASGSGKS [F1D] | 4.03
EGSRSLYSLGGVRSLNVASGSGKS [F1E] | 3.83
GGSRSLYSLGGVRSLNVASGSGKS [F1G] | 3.44
HGSRSLYSLGGVRSLNVASGSGKS [F1H] | 3.98
IGSRSLYSLGGVRSLNVASGSGKS [F1I] | 3.33
KGSRSLYSLGGVRSLNVASGSGKS [F1K] | 4.06
LGSRSLYSLGGVRSLNVASGSGKS [F1L] | 3.43
MGSRSLYSLGGVRSLNVASGSGKS [F1M] | 3.75
NGSRSLYSLGGVRSLNVASGSGKS [F1N] | 3.85
PGSRSLYSLGGVRSLNVASGSGKS [F1P] | 3.92
QGSRSLYSLGGVRSLNVASGSGKS [F1Q] | 4.4
RGSRSLYSLGGVRSLNVASGSGKS [F1R] | 3.55
SGSRSLYSLGGVRSLNVASGSGKS [F1S] | 4.56
TGSRSLYSLGGVRSLNVASGSGKS [F1T] | 3.59
VGSRSLYSLGGVRSLNVASGSGKS [F1V] | 3.81
WGSRSLYSLGGVRSLNVASGSGKS [F1W] | 2.16
YGSRSLYSLGGVRSLNVASGSGKS [F1Y] | 1.64

Variant | protein stability index
FASRSLYSLGGVRSLNVASGSGKS [G2A] | 2.02
FCSRSLYSLGGVRSLNVASGSGKS [G2C] | 3.47
FDSRSLYSLGGVRSLNVASGSGKS [G2D] | 3.02
FESRSLYSLGGVRSLNVASGSGKS [G2E] | 3.3
FFSRSLYSLGGVRSLNVASGSGKS [G2F] | 2.33
FHSRSLYSLGGVRSLNVASGSGKS [G2H] | 1.32
FISRSLYSLGGVRSLNVASGSGKS [G2I] | 1.78
FKSRSLYSLGGVRSLNVASGSGKS [G2K] | 3.75
FLSRSLYSLGGVRSLNVASGSGKS [G2L] | 2.45
FMSRSLYSLGGVRSLNVASGSGKS [G2M] | 1.99
FNSRSLYSLGGVRSLNVASGSGKS [G2N] | 2.58
FPSRSLYSLGGVRSLNVASGSGKS [G2P] | 2.07
FQSRSLYSLGGVRSLNVASGSGKS [G2Q] | 3.09
FRSRSLYSLGGVRSLNVASGSGKS [G2R] | 3.5
FSSRSLYSLGGVRSLNVASGSGKS [G2S] | 1.99
FTSRSLYSLGGVRSLNVASGSGKS [G2T] | 1.32
FVSRSLYSLGGVRSLNVASGSGKS [G2V] | 3.98
FWSRSLYSLGGVRSLNVASGSGKS [G2W] | 1.8
FYSRSLYSLGGVRSLNVASGSGKS [G2Y] | 2.08

Variant | protein stability index
FGARSLYSLGGVRSLNVASGSGKS [S3A] | 2.19
FGCRSLYSLGGVRSLNVASGSGKS [S3C] | 1.56
FGDRSLYSLGGVRSLNVASGSGKS [S3D] | 1.43
FGERSLYSLGGVRSLNVASGSGKS [S3E] | 2.22
FGFRSLYSLGGVRSLNVASGSGKS [S3F] | 2.22
FGGRSLYSLGGVRSLNVASGSGKS [S3G] | 1.84
FGHRSLYSLGGVRSLNVASGSGKS [S3H] | 2.06
FGIRSLYSLGGVRSLNVASGSGKS [S3I] | 2.37
FGKRSLYSLGGVRSLNVASGSGKS [S3K] | 1.78
FGLRSLYSLGGVRSLNVASGSGKS [S3L] | 2.47
FGMRSLYSLGGVRSLNVASGSGKS [S3M] | 2.21
FGNRSLYSLGGVRSLNVASGSGKS [S3N] | 1.26
FGPRSLYSLGGVRSLNVASGSGKS [S3P] | 2.71
FGQRSLYSLGGVRSLNVASGSGKS [S3Q] | 2.09
FGRRSLYSLGGVRSLNVASGSGKS [S3R] | 1.97
FGTRSLYSLGGVRSLNVASGSGKS [S3T] | 1.95
FGVRSLYSLGGVRSLNVASGSGKS [S3V] | 2.23
FGWRSLYSLGGVRSLNVASGSGKS [S3W] | 1.59
